# Patent US20130150301A1 (KAI PHARMACEUTICALS, published 2013)
# Ends that are not written are not given here.
# B1: Ac-cArrrAr-NH2 (SEQ ID NO: 43) (peptide)
# peptide: XAXXXAX
# modifications: N-terminal acetyl; C-terminal amide; D-Cys 1, L-Ala 2 and 6, D-Arg 3, 4, 5 and 7
# B2: Ac-c(GS)rrrrrr-NH2 (SEQ ID NO: 53) (peptide)
# peptide: XXXXXXX
# modifications: not fully specified; N-terminal acetyl; C-terminal amide; all D-residues; oxidized glutathione (GS) attached to the side chain of D-Cys 1
# B3: conjugate of SEQ ID NO: 46 (CPDYHDAGI) and SEQ ID NO: 47 (Ac-CYGRKKRRQRRR-NH2) (peptide)
# peptide 1: CPDYHDAGI
# peptide 2: Ac-CYGRKKRRQRRR-NH2
# modifications: not fully specified; cysteine pairing not given here
# B4: Ac-c(Benzoyl)rrrrrr-NH2 (SEQ ID NO: 81) (peptide)
# peptide: XXXXXXX
# modifications: N-terminal acetyl; C-terminal amide; all D-residues; benzoyl attached to the side chain of D-Cys 1
# B5: conjugate of SEQ ID NO: 45 (CHDAPIGYD) and SEQ ID NO: 47 (Ac-CYGRKKRRQRRR-NH2) (peptide)
# peptide 1: CHDAPIGYD
# peptide 2: Ac-CYGRKKRRQRRR-NH2
# modifications: not fully specified; cysteine pairing not given here; also: further groups not given here
# B6: Ac-c(acetyl)rrrrrr-NH2 (SEQ ID NO: 82) (peptide)
# peptide: XXXXXXX
# modifications: N-terminal acetyl; C-terminal amide; all D-residues; acetyl attached to the side chain of D-Cys 1
# B7: Ac-bAla-crrrrrr-NH2 (SEQ ID NO: 30) (peptide)
# peptide: XXXXXXXX
# modifications: acetylated beta-alanine (Ac-bAla) at the N-terminus; C-terminal amide; D-Cys and six D-Arg
# B8: Ac-c(Ac-C)arrrar-NH2 (SEQ ID NO: 55) (peptide)
# peptide: XXXXXXX
# modifications: N-terminal acetyl; C-terminal amide; all D-residues; N-acetylated L-Cys (Ac-C) attached to the side chain of D-Cys 1
# B9: Ac-C(C)arrrar-NH2 (SEQ ID NO: 34) (peptide)
# peptide: XXXXXXX
# modifications: not fully specified; N-terminal acetyl; C-terminal amide; L-Cys 1 conjugated via a disulfide linkage to an L-Cys residue (C); residues 2-7 D
# B10: Ac-c(C)arrrar-NH2 (SEQ ID NO: 3) (peptide)
# peptide: XXXXXXX
# modifications: N-terminal acetyl; C-terminal amide; all seven residues D; D-Cys 1 conjugated via a disulfide linkage to an L-Cys residue (C)
# B11: Ac-caaarrrrrr-NH2 (SEQ ID NO: 77) (peptide)
# peptide: XXXXXXXXXX
# HELM: PEPTIDE1{[ac].[dC].[dA].[dA].[dA].[dR].[dR].[dR].[dR].[dR].[dR].[am]}$$$$V2.0
# SMILES: CC(=O)N[C@H](CS)C(=O)N[C@H](C)C(=O)N[C@H](C)C(=O)N[C@H](C)C(=O)N[C@H](CCCNC(=N)N)C(=O)N[C@H](CCCNC(=N)N)C(=O)N[C@H](CCCNC(=N)N)C(=O)N[C@H](CCCNC(=N)N)C(=O)N[C@H](CCCNC(=N)N)C(=O)N[C@H](CCCNC(=N)N)C(N)=O
# B12: Ac-c(PEG5-C)rrrrrr-NH2 (SEQ ID NO: 58) (peptide)
# peptide: XXXXXXX
# modifications: N-terminal acetyl; C-terminal amide; all D-residues; L-Cys carrying a 5 kDa polyethylene glycol (PEG5-C) attached to the side chain of D-Cys 1
# B13: Ac-c(Mpa)arrrar-NH2 (SEQ ID NO: 56) (peptide)
# peptide: XXXXXXX
# modifications: N-terminal acetyl; C-terminal amide; all D-residues; mercaptopropionic acid (Mpa) attached to the side chain of D-Cys 1
# B14: Ac-dHcy rrrrrr-NH2 (SEQ ID NO: 32) (peptide)
# peptide: XXXXXXX
# modifications: N-terminal acetyl; C-terminal amide; D-homocysteine (dHcy) at position 1; D-Arg 2-7
# B15: c(C)arrrar-NH2 (SEQ ID NO: 60) (peptide)
# peptide: XXXXXXX
# modifications: no N-terminal cap; C-terminal amide; all D-residues; L-Cys (C) attached to the side chain of D-Cys 1
# B16: Ac-bAla-c(C)arrrar-NH2 (SEQ ID NO: 61) (peptide)
# peptide: XXXXXXXX
# modifications: acetylated beta-alanine (Ac-bAla) at the N-terminus; C-terminal amide; carrrar all D; L-Cys (C) attached to the side chain of the D-Cys
# B17: Ac-CaRrRaR-NH2 (SEQ ID NO: 44) (peptide)
# peptide: CXRXRXR
# modifications: N-terminal acetyl; C-terminal amide; L-Cys 1, D-Ala 2, L-Arg 3, D-Arg 4, L-Arg 5, D-Ala 6, L-Arg 7
# B18: Ac-cygrkkrrqrrr-NH2 (SEQ ID NO: 50) (peptide)
# peptide: XXXXXXXXXXXX
# modifications: N-terminal acetyl; C-terminal amide; all D-residues (glycine printed in lower case)
# B19: Ac-crrarrr-NH2 (SEQ ID NO: 10) (peptide)
# peptide: XXXXXXX
# HELM: PEPTIDE1{[ac].[dC].[dR].[dR].[dA].[dR].[dR].[dR].[am]}$$$$V2.0
# SMILES: CC(=O)N[C@H](CS)C(=O)N[C@H](CCCNC(=N)N)C(=O)N[C@H](CCCNC(=N)N)C(=O)N[C@H](C)C(=O)N[C@H](CCCNC(=N)N)C(=O)N[C@H](CCCNC(=N)N)C(=O)N[C@H](CCCNC(=N)N)C(N)=O
# B20: Ac-carrrrr-NH2 (SEQ ID NO: 8) (peptide)
# peptide: XXXXXXX
# HELM: PEPTIDE1{[ac].[dC].[dA].[dR].[dR].[dR].[dR].[dR].[am]}$$$$V2.0
# SMILES: CC(=O)N[C@H](CS)C(=O)N[C@H](C)C(=O)N[C@H](CCCNC(=N)N)C(=O)N[C@H](CCCNC(=N)N)C(=O)N[C@H](CCCNC(=N)N)C(=O)N[C@H](CCCNC(=N)N)C(=O)N[C@H](CCCNC(=N)N)C(N)=O
# B21: Ac-crarrrr-NH2 (SEQ ID NO: 9) (peptide)
# peptide: XXXXXXX
# HELM: PEPTIDE1{[ac].[dC].[dR].[dA].[dR].[dR].[dR].[dR].[am]}$$$$V2.0
# SMILES: CC(=O)N[C@H](CS)C(=O)N[C@H](CCCNC(=N)N)C(=O)N[C@H](C)C(=O)N[C@H](CCCNC(=N)N)C(=O)N[C@H](CCCNC(=N)N)C(=O)N[C@H](CCCNC(=N)N)C(=O)N[C@H](CCCNC(=N)N)C(N)=O
# B22: Ac-crrrrra-NH2 (SEQ ID NO: 13) (peptide)
# peptide: XXXXXXX
# HELM: PEPTIDE1{[ac].[dC].[dR].[dR].[dR].[dR].[dR].[dA].[am]}$$$$V2.0
# SMILES: CC(=O)N[C@H](CS)C(=O)N[C@H](CCCNC(=N)N)C(=O)N[C@H](CCCNC(=N)N)C(=O)N[C@H](CCCNC(=N)N)C(=O)N[C@H](CCCNC(=N)N)C(=O)N[C@H](CCCNC(=N)N)C(=O)N[C@H](C)C(N)=O
# Target: T1, human calcium-sensing receptor (CaSR) (human, UniProt P41180 20-1078)
# T1 sequence (looked up): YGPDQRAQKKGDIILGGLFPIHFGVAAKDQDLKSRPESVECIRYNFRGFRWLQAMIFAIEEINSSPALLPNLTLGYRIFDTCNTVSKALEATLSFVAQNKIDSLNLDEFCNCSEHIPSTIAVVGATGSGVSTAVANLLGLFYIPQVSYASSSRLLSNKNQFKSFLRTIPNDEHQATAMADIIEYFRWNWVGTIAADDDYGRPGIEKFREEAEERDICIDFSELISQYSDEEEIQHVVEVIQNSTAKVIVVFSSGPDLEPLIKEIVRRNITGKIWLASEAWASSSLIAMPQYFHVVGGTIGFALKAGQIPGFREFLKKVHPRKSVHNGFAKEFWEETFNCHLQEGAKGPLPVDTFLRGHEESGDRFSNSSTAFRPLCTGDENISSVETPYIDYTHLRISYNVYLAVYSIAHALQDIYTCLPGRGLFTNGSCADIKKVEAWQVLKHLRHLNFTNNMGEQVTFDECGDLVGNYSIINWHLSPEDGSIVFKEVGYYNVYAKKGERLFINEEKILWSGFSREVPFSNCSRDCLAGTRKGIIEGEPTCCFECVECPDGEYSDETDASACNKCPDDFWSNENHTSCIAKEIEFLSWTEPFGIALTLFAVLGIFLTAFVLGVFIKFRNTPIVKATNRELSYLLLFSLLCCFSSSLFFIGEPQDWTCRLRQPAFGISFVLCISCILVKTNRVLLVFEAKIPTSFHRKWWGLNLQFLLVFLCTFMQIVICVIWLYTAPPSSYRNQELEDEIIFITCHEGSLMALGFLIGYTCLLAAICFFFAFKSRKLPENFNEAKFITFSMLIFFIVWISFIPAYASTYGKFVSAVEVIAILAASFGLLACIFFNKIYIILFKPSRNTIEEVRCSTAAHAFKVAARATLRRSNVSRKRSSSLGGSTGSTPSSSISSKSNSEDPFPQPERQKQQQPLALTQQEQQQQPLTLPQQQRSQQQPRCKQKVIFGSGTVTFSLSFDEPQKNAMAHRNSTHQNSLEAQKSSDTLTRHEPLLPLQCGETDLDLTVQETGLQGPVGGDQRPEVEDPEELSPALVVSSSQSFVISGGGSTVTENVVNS
# Assay: cell-based or functional assay
row,Binder,EC50 (IP1 production in HEK293 cells that express the human CaSR) [µM]
1,B1,> 1000
2,B2,7.8
3,B3,21
4,B4,3.6
5,B5,21
6,B6,4.1
7,XXXXX (N-terminal acetyl; C-terminal amide; all D-residues) [Ac-crrrr-NH2 (SEQ ID NO: 4)],16
8,B7,1
9,B8,21
10,B9,2.5
11,B10,10
12,XXXXXXX (no N-terminal cap; C-terminal amide; all D-residues) [crrrrrr-NH2 (SEQ ID NO: 80)],1.1
13,B11,4.6
14,B12,0.58
15,B13,21
16,B14,2
17,Ac-YGRKKRRQRRR-NH2 [Ac-YGRKKRRQRRR-NH2 (SEQ ID NO: 48)],16
18,B15,3.1
19,XXXXXXX (N-terminal acetyl; free C-terminal acid (-OH); all D-residues) [Ac-carrrar-OH (SEQ ID NO: 74)],31
20,Ac-CYGRKKRRQRRR-NH2 [Ac-CYGRKKRRQRRR-NH2 (SEQ ID NO: 47)],4.5
21,Ac-CARRRAR-NH2 [Ac-CARRRAR-NH2 (SEQ ID NO: 75)],58
22,B16,2.6
23,B17,5.6
24,B18,2

# Target: T1, human calcium-sensing receptor (CaSR)
# Assay: cell-based or functional assay
# Remark: another data set of the same source
Binder,fold decrease in potency against Ac-carrrar-NH2 (SEQ ID NO:26) [fold],"fold difference in potency against the CaSR, against Ac-crrrrrr-NH2 (SEQ ID NO:6) [fold]","shift in potency (HEK-293 in vitro cell assay), 4 against 5 arginine subunits [fold]","fold loss in in vitro potency against Ac-crrrrrr-NH2 (SEQ ID NO:6), human CaSR assay in HEK 293 cells [fold]",fold difference in potency against Ac-carrrar-NH2 (SEQ ID NO:26) [fold],fold reduction in potency against Ac-carrrar-NH2 (SEQ ID NO:26) [fold]
B1,> 600,> 2000,–,–,–,–
XXXXXXX (N-terminal acetyl; C-terminal amide; all D-residues) [Ac-carrrar-NH2 (SEQ ID NO: 26)],–,~3,–,–,–,–
XXXXX (N-terminal acetyl; C-terminal amide; all D-residues) [Ac-crrrr-NH2 (SEQ ID NO: 4)],–,–,> 10,–,–,–
B19,–,–,–,~2,–,–
B20,–,–,–,~2,–,–
B21,–,–,–,~2,–,–
B22,–,–,–,~2,–,–
B17,–,10,–,–,< 4,–
"XGXXXGX (N-terminal acetyl; C-terminal amide; D-Cys 1, Gly 2 and 6, D-Arg 3, 4, 5 and 7) [Ac-cGrrrGr-NH2 (SEQ ID NO: 42)]",–,–,–,–,–,< 8
